# Data from patent publication US20170247475A1 (Boehringer Ingelheim, published 2017).
# Read-outs that look alike come from different tables or passages of the source.
# T1: mAng2
# T1 construct: also called mouse Ang2
# T1 chain: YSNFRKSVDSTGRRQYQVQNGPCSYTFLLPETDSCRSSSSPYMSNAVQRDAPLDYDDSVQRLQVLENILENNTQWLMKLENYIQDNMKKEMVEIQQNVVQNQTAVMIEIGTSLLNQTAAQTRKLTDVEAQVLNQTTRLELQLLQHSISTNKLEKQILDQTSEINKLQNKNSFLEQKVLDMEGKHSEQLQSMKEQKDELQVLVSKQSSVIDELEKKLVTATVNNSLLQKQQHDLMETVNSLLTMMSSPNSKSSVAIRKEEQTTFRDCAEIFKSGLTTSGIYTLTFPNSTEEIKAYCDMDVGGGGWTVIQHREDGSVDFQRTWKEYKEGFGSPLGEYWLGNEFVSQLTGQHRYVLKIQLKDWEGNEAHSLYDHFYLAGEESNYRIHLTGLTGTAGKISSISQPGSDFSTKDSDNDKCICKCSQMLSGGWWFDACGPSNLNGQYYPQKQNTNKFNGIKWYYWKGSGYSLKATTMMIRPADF
# T2: hAng2
# T2 construct: also called human Ang2
# T2 chain: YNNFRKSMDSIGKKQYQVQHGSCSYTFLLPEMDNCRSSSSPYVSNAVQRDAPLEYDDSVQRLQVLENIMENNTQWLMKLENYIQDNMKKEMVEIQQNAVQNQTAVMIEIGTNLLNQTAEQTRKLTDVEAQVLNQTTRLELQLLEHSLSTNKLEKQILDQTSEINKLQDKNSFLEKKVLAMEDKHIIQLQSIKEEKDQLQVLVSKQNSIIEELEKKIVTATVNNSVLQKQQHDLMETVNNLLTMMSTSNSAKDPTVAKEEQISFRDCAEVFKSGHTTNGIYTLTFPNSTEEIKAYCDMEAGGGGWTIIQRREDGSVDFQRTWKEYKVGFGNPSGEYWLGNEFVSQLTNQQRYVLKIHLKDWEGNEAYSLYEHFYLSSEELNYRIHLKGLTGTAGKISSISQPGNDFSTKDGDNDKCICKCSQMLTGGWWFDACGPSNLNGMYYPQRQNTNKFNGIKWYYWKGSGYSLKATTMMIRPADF
# T3: recombinant mouse VEGF164 (mouse, UniProt Q00731-2 27-190)
# T3 construct: biotinylated in the mVEGFR2 AlphaScreen; also called rmVEGF164; mVEGF164
# T3 sequence (looked up): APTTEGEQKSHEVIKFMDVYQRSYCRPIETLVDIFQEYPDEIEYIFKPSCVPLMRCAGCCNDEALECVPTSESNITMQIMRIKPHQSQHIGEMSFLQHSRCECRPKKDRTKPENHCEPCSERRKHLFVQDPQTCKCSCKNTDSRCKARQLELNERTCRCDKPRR
# T4: human VEGF-D (human, UniProt O43915 93-201)
# T4 construct: also called hVEGF-D
# T4 sequence (looked up): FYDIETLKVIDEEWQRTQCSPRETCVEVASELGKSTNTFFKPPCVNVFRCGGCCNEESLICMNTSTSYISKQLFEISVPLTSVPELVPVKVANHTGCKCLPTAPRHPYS
# T5: human PIGF (human, UniProt P49763-2 21-149, limits assumed)
# T5 construct: also called hPIGF; PLGF
# T5 sequence (looked up): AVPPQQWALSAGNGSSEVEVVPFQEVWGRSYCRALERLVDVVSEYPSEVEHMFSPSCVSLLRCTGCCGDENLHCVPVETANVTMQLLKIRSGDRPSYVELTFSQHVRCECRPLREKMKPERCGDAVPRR
# T6: human VEGF-C (human, UniProt P49767 103-227)
# T6 construct: also called hVEGF-C
# T6 sequence (looked up): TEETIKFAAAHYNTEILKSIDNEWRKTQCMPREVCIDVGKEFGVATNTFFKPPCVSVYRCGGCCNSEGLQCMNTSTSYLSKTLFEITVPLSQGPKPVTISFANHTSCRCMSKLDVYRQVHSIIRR
# T7: human VEGF-B (human, UniProt P49765-2 22-188, limits assumed)
# T7 construct: also called hVEGF-B
# T7 sequence (looked up): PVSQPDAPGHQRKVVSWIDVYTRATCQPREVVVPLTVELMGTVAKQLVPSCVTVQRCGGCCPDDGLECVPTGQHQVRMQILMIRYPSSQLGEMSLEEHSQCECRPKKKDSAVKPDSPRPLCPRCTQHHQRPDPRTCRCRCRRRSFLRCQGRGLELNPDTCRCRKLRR
# T8: recombinant human VEGF121 (human, UniProt P15692-9 27-147)
# T8 construct: also called rhVEGF121; hVEGF121
# T8 sequence (looked up): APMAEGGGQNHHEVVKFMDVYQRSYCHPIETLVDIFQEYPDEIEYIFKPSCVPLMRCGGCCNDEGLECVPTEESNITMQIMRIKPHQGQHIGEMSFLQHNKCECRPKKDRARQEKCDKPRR
# How the values were obtained:
# [1] = biological target: T1, mAng2; assay: competition ELISA, blocking of mAng2 binding to mTie2
# [2] = biological target: T2, hAng2; assay: competition ELISA, blocking of hAng2 binding to hTie2
# [3] = biological target: T3, recombinant mouse VEGF164; assay: binding ELISA on coated mouse VEGF164
# Experimental: Cross-reactivity to mouse VEGF164 is determined using a binding ELISA. […] Wells are blocked with a casein solution (1% in PBS). […] A mouse VEGF164 reactive mAb is included as positive control.
# [4] = biological target: T9, recombinant human VEGF165 (human, UniProt P15692-4 27-191); assay: SPR Biacore T100, Two State Reaction model; KD = kd1/ka1 * (kd2/(kd2 + ka2))
# T9 construct: also called hVEGF165; rhVEGF165
# Experimental: (§1) Samples are injected for 2 min and allowed to dissociate up to 20 min at a flow rate of 45 μI/min. In between sample injections, the chip surface is regenerated with 100 mM HCl. HBS-EP+(Hepes buffer pH7.4+EDTA) is used as running buffer. Binding curves are fitted using a Two State Reaction model by Biacore T100 Evaluation Software v2.0.1.
# (§2) ^{(a)}KD = kd1/kₐ₁ * (kd2/(kd2 + kₐ₂)) ^{(b)}Curves are fitted using a Two State Reaction model by Biacore T100 Evaluation Software v2.0.1
# [5] = biological target: T9, recombinant human VEGF165; assay: VEGF/VEGFR2 competition AlphaScreen
# Experimental: (§3) Finally, streptavidin donor beads (20 μg/ml) are added and after 1 hour of incubation in the dark, fluorescence is measured on the Envision microplate reader.
# [6] = biological target: T9, recombinant human VEGF165; assay: VEGF165/hVEGFR1-Fc competition ELISA
# [7] = biological target: T9, recombinant human VEGF165; assay: VEGF/VEGFR1 competition AlphaScreen
# Experimental: as §3
# [8] = biological target: T4, human VEGF-D; assay: binding ELISA on coated VEGF D
# Experimental: (§4) Binding to VEGFB, VEGFC, VEGFD and PIGF is assessed via a solid phase binding ELISA. In brief, VEGFB, VEGFC, VEGFD and PIGF (R&D Systems, Minneapolis, Minn., USA) are coated overnight at 4° C. at 1 μg/mL in a 96-well MaxiSorp plate (Nunc, Wiesbaden, Germany). Wells are blocked with a casein solution (1% in PBS). […] As positive controls serial dilutions of the appropriate receptors are taken along and detected with horseradish peroxidase (HRP)-conjugated goat anti-human IgG, Fc specific antibody (Jackson Immuno Research Laboratories Inc., West Grove, Pa., USA) and a subsequent enzymatic reaction in the presence of the substrate TMB (3,3′,5,5′-tetramentylbenzidine) (Pierce, Rockford, Ill., USA).
# [9] = biological target: T9, recombinant human VEGF165; assay: kd1; SPR Biacore T100, hVEGF165 on chip, Two State Reaction model
# Experimental: as §1, §2
# [10] = biological target: VEGF; assay: cell-based or functional assay
# [11] = biological target: T9, recombinant human VEGF165; assay: binding ELISA, coated rhVEGF165
# [12] = biological target: T9, recombinant human VEGF165; assay: VEGF165/hVEGFR1-Fc competition AlphaScreen
# Experimental: as §3
# [13] = biological target: T9, recombinant human VEGF165; assay: hVEGF165/hVEGFR2-Fc competition AlphaScreen
# Experimental: as §3
# [14] = biological target: T9, recombinant human VEGF165; assay: SPR Biacore T100, hVEGF165 on chip, Two State Reaction model
# Experimental: as §1, §2
# [15] = biological target: T5, human PIGF; assay: binding ELISA on coated PIGF
# Experimental: as §4
# [16] = biological target: T6, human VEGF-C; assay: binding ELISA on coated VEGFC
# Experimental: as §4
# [17] = biological target: T9, recombinant human VEGF165; assay: ka1; SPR Biacore T100, hVEGF165 on chip, Two State Reaction model
# Experimental: as §1, §2
# [18] = biological target: VEGF; assay: cell-based or functional assay; remark: listed apart in the source
# [19] = biological target: T7, human VEGF-B; assay: binding ELISA on coated VEGFB
# Experimental: as §4
# [20] = biological target: T8, recombinant human VEGF121; assay: binding ELISA, coated rhVEGF121
# Experimental: Binding to recombinant human VEGF121 is assessed via a solid phase binding ELISA. Briefly, recombinant human VEGF121 (R&D Systems, Minneapolis, Minn., USA) is coated overnight at 4° C. at 1 μg/mL in a 96-well MaxiSorp plate (Nunc, Wiesbaden, Germany). Wells are blocked with a casein solution (1% in PBS).
# [21] = biological target: T9, recombinant human VEGF165; assay: hVEGF165/hVEGFR2-Fc competition ELISA
# [22] = biological target: VEGF; assay: cell-based or functional assay; remark: listed apart in the source
# [23] = biological target: T9, recombinant human VEGF165; assay: VEGF165/VEGFR2 blocking AlphaScreen
# [24] = biological target: T9, recombinant human VEGF165; assay: Biacore on VEGF165 (Example 5.5)
# Experimental: as §1
binder,measurement,setting,value
"ANGBII00002 (VHH, homodimeric anti-Ang2 VHH; also called 1D01-40gs-1D01) bivalent VHH: EVQLVESGGGLVQAGGSLRLSCAASGFTFDDYALGWFRQAAGKEREGVSCIRCSDGSTYYADSVKGRFTISSDNAKNTVYLQMNSLKPEDTAVYYCAASIVPRSKLEPYEYDAWGQGTLVTVSSGGGGSGGGGSGGGGSGGGGSGGGGSGGGGSGGGGSGGGGSEVQLVESGGGLVQAGGSLRLSCAASGFTFDDYALGWFRQAAGKEREGVSCIRCSDGSTYYADSVKGRFTISSDNAKNTVYLQMNSLKPEDTAVYYCAASIVPRSKLEPYEYDAWGQGTLVTVSS",IC50 (read off the curve),[1],~30 pM
same,IC50 (read off the curve),[2],~20 pM
"VEGFBII024 (VHH, biparatopic bivalent VHH in one chain; also called VEGFBII23B04-40GS-86H09; VEGFBI024) EVQLVESGGGLVQTGDSLRLSCEVSGRTFSSYSMGWFRQAQGKEREFVVAISKGGYKYDSVSLEGRFTISKDNAKNTVYLQINSLKPEDTAVYYCASSRAYGSSRLRLADTYEYWGQGTQVTVSSGGGGSGGGGSGGGGSGGGGSGGGGSGGGGSGGGGSGGGGSEVQLVESGGGLVQAGGSLRLSCTASGSAFKSYRMGWFRRTPGKEDEFVASISWTYGSTFYADSVKGRFTMSRDKAKNAGYLQMNSLKPEDTALYYCAAGAQSDRYNIRSYDYWGQGTQVTVSS",binding result,[3],binds
same,Kd,[4],470 pM
same,IC50,[5],12 pM
same,% inhibition,[6],92%
same,IC50,[6],326 pM
same,% inhibition,[7],100%
same,IC50,[7],46 pM
same,binding result,[8],no binding (tested: 5e-7 M)
same,koff,[9],0.013 s⁻¹
same,"% inhibition, VEGF HUVEC Erk phosphorylation assay",[10],94%
same,"IC50 (nM), VEGF HUVEC Erk phosphorylation assay",[10],0.23 nM
same,EC50,[11],320 pM
same,% inhibition,[12],98%
same,IC50,[12],69 pM
same,% inhibition,[13],100%
same,IC50,[13],50 pM
same,ka2,[14],0.026 s⁻¹
same,kd2,[14],0.00028 s⁻¹
same,binding result,[15],no binding (tested: 5e-7 M)
same,binding result,[16],no binding (tested: 5e-7 M)
same,kon,[17],300000 M⁻¹ s⁻¹
same,"% inhibition, VEGF HUVEC proliferation assay",[18],96%
same,"IC50 (nM), VEGF HUVEC proliferation assay",[18],0.38 nM
same,binding result,[19],no binding (tested: 5e-7 M)
same,EC50,[20],325 pM
same,% inhibition,[21],100%
same,IC50,[21],292 pM
"VEGFBII037 (VHH, also called VEGFBII0037) VHH: DVQLVESGGGLVQPGGSLRLSCAASGRTFSSYSMGWFRQAPGKEREFVVAISKGGYKYDAVSLEGRFTISRDNAKNTVYLQMNSLRPEDTAVYYCASSRAYGSSRLRLADTYEYWGQGTLVTVSS","% inhibition, VEGF HUVEC proliferation assay",[22],78%
same,"IC50 (nM), VEGF HUVEC proliferation assay",[22],1.54 nM
same,% inhibition,[23],100%
same,IC50,[23],300 pM
same,Kd,[24],270 pM
